Measured values taken from FireProtDB (doi:10.1111/j.1432-1033.1994.tb18652.x).

Conditions: Aspergillus oryzae (strain ATCC 42149 / RIB 40), pH 6, Thermal, DSC, sodium acetate calcium acetate 20 mM 2 mM, Mops 50 mM, reversible: yes, whole UniProt chain shown

B1: Guanyl-specific ribonuclease T1 wild type, P00651 (protein)
chain: MMYSKLLTLTTLLLPTALALPSLVERACDYTCGSNCYSSSDVSTAQAAGYQLHEDGETVGSNSYPHKYNNYEGFDFSVSSPYYEWPILSSGDVYSGGSPGADRVVFNENNQLAGVITHTGASGNNFVECT
25 °C
  heat capacity change of unfolding: 0.98 kcal/mol/K
  unfolding free energy: 32.7 kJ/mol
  Tm: 57.2 °C
  unfolding enthalpy (calorimetric): 404 kJ/mol
